# Reference: article PMC11255602 (Protein Science : A Publication of the Protein Society, 2024)
# Substitutions are numbered along the chain they refer to. Names may count otherwise.
# B1: tetramer interface mutant (TIM) PRMT1 Y262A/Y304A/L341A (enzyme, human (rat sequence humanized by H161Y), UniProt Q99873-3 1-353, looked up)
# chain: MAAAEAANCIMEVSCGQAESSEKPNAEDMTSKDYYFDSYAHFGIHEEMLKDEVRTLTYRNSMFHNRHLFKDKVVLDVGSGTGILCMFAAKAGARKVIGIECSSISDYAVKIVKANKLDHVVTIIKGKVEEVELPVEKVDIIISEWMGYCLFYESMLNTVLYARDKWLAPDGLIFPDRATLYVTAIEDRQYKDYKIHWWENVYGFDMSCIKDVAIKEPLVDVVDPKQLVTNACLIKEVDIYTVKVEDLTFTSPFCLQVKRNDAVHALVAYFNIEFTRCHKRTGFSTSPESPYTHWKQTVFYMEDALTVKTGEEIFGTIGMRPNAKNNRDLDFTIDLDFKGQACELSCSTDYRMR
# B2: tetramer interface mutant 2 (TIM2) PRMT1 H64A/R66A/H278A (enzyme, human (rat sequence humanized by H161Y), UniProt Q99873-3 1-353, looked up)
# chain: B1 chain with H64A, R66A, A262Y, H278A, A304Y, A341L
# B3: H293A/E153A (HE) PRMT1 (enzyme, human (rat sequence humanized by H161Y), UniProt Q99873-3 1-353, looked up)
# chain: B1 chain with E153A, A262Y, H293A, A304Y, A341L
# Molecular target: the molecule itself
# Test: native gel or EMSA
row,Protein,stoichiometry N
1,B1,2
2,B2,2
3,B3,4
